The target in test [1] is T1, human CD3 (TCR/CD3 complex on the cell surface) (human, UniProt P07766 23-207; P04234 22-171; P09693 23-182).
T1 construct: whole, on cells; Native CD3 on human Pan-T cells or Jurkat wild-type cells; also called CD3 on Pan-T cells; CD3 on Jurkat WT cells
Put plainly: flow cytometry, Pan-T cells, 1 ug/mL.

In test [2] the target is T1, human CD3 (TCR/CD3 complex on the cell …). Put plainly: flow cytometry, Jurkat WT cells, 1 ug/mL. Background: A flow cytometer gives signals particle by particle.
Test [3] has the same target. The test is described as follows: flow cytometry, Jurkat WT gMFI over Jurkat KO gMFI, 1 ug/mL.
For test [4] the target is unchanged. The test is described as follows: flow cytometry, Pan-T cells, 10 ug/mL.
Test [5] shares this target. The test is described as follows: flow cytometry, Jurkat WT cells, 10 ug/mL.
Test [6] has the same target. The test is described as follows: flow cytometry, Jurkat WT gMFI over Jurkat KO gMFI, 10 ug/mL.

We go through seven molecules from patent US20260167721A1 (ABLEXIS, published 2026).

Numbering of substitutions follows the chain as printed.

T1 sequence (P07766 23-207, chain 1 of 3): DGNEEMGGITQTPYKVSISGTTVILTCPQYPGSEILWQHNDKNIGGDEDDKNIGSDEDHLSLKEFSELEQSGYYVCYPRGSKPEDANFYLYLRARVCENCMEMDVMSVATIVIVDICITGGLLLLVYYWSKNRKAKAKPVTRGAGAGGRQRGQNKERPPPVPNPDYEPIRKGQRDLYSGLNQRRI
T1 sequence (P04234 22-171, chain 2 of 3): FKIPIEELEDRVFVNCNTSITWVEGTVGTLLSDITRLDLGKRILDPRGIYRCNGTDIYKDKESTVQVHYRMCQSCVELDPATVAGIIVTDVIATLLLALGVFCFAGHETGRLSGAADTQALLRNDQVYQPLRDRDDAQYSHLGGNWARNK
T1 sequence (P09693 23-182, chain 3 of 3): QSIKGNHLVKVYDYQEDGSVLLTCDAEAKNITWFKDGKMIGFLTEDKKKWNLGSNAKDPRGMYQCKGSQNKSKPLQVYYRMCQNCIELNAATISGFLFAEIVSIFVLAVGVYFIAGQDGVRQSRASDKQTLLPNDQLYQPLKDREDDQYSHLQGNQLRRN

B1: CD3 × CD33-BspAb104 (bispecific antibody)
scFv-Fc: QSALTQPASVSGSPGQSITISCTGTSSDVGSYNLVSWYQQHPGKAPKLMIYEDIRRPSGVSNRFSASKSGDTASLTISGLQAEDEADYYCSSYAGSTTFAIFGCGTKLTVLGGGGSGGGGSGGGGSGGGGSEVQLVQSGAEVKKPGESLKISCKGSEYSFTTYWIAWVRQMPGKCLEWMGIIYPGDSDTTYSPSFQGQVTISADKSISIAFLQWSSLKASDTAMYYCARQGELDAFDIWGQGTMVTVSSGGGGSDKTHTCPPCPAPEFEGGPSVFLFPPKPKDTLMISRTPEVTCVVVDVSHEDPEVKFNWYVDGVEVHNAKTKPREEQYNSTYRVVSVLTVLHQDWLNGKEYKCKVSNKALPASIEKTISKAKGQPREPQVYTLPPCREEMTKNQVSLWCLVKGFYPSDIAVEWESNGQPENNYKTTPPVLDSDGSFFLYSKLTVDKSRWQQGNVFSCSVMHEALHNHYTQKSLSLSPGK
heavy: EVQLVQSGAEVKKPGSSVKVSCKASGYTITDSNIHWVRQAPGQSLEWIGYIYPYNGGTDYNQKFKNRATLTVDNPTNTAYMELSSLRSEDTAFYYCVNGNPWLAYWGQGTLVTVSSASTKGPSVFPLAPSSKSTSGGTAALGCLVKDYFPEPVTVSWNSGALTSGVHTFPAVLQSSGLYSLSSVVTVPSSSLGTQTYICNVNHKPSNTKVDKRVEPKSCDKTHTCPPCPAPEFEGGPSVFLFPPKPKDTLMISRTPEVTCVVVDVSHEDPEVKFNWYVDGVEVHNAKTKPREEQYNSTYRVVSVLTVLHQDWLNGKEYKCKVSNKALPASIEKTISKAKGQPREPQVCTLPPSREEMTKNQVSLSCAVKGFYPSDIAVEWESNGQPENNYKTTPPVLDSDGSFFLVSKLTVDKSRWQQGNVFSCSVMHEALHNRFTQKSLSLSPGK
light: DIQLTQSPSTLSASVGDRVTITCRASESLDNYGIRFLTWFQQKPGKAPKLLMYAASNQGSGVPSRFSGSGSGTEFTLTISSLQPDDFATYYCQQTKEVPWSFGQGTKVEVKRTVAAPSVFIFPPSDEQLKSGTASVVCLLNNFYPREAKVQWKVDNALQSGNSQESVTEQDSKDSTYSLSSTLTLSKADYEKHKVYACEVTHQGLSSPVTKSFNRGEC
notes: KiH heterodimer
As to B1, the entries for the “% Positive” value in test [1] and in test [4] were 1.2% and 1.6%, respectively. The gMFI in test [1] was 2020 gMFI; in test [2], 1700 gMFI; in test [4], 2090 gMFI; in test [5], 1790 gMFI. Besides, the “Jurkat WT/KO (Fold)” value is 0.8 fold in test [3] and 1 fold in test [6].

B2: CD3 × CD33-BspAb118 (bispecific antibody)
scFv-Fc: FMLTQPHSVSESPGKTVTISCTRSSGSIASNYVQWYQQRPGSSPTTVIYEDNQRPSGVPDRFSGSIDSSSNSASLTISGLQTEDEADYYCQSYDSSNRVFGCGTKLTVLGGGGSGGGGSGGGGSGGGGSEVQLVESGGGLVKPGGSLRLSCVASGFTFSRYSMNWVRQAPGKCLEWVSSISSSSRYTYYADSLKGRFIMSRDNAKNSLFLQMNSLRAEDTAVYYCARNLYNALDYWGQGTLVTVSSGGGGSDKTHTCPPCPAPEFEGGPSVFLFPPKPKDTLMISRTPEVTCVVVDVSHEDPEVKFNWYVDGVEVHNAKTKPREEQYNSTYRVVSVLTVLHQDWLNGKEYKCKVSNKALPASIEKTISKAKGQPREPQVYTLPPCREEMTKNQVSLWCLVKGFYPSDIAVEWESNGQPENNYKTTPPVLDSDGSFFLYSKLTVDKSRWQQGNVFSCSVMHEALHNHYTQKSLSLSPGK
heavy: B1 heavy
light: B1 light
notes: KiH heterodimer
With B2, the figures for the “% Positive” value in test [1] and in test [4] were 99.3% and 99.8%, respectively. Also, the gMFI in test [1] came to 331000 gMFI; in test [2] it was 56300 gMFI; in test [4] it was 370000 gMFI; in test [5], 65000 gMFI. Moreover, the “Jurkat WT/KO (Fold)” value in test [3] was 12.3 fold; in test [6], 13.8 fold.

B3: CD3 × CD33-BspAb116 (bispecific antibody)
scFv-Fc: NFMLTQPHSVSESPGKTVTISCTRSSGSIASNYVQWYQQRPGSSPTTVIYEDNQRPSGVPDRFSGSIDSSSNSASLTISGLKTEDEAYYYCQSFDSSNRVFGCGTKLTVLGGGGSGGGGSGGGGSGGGGSQVQLQESGPGLVKPSQTLSLTCTVSGGSISSGGYYWSWIRQHPGKCLEWIGYIYYSGSTYYNPSLKSRVTISVDTSKDQFSLKLSSVTAADTAVYYCARERKTSLPFDIWGQGTMVTVSSGGGGSDKTHTCPPCPAPEFEGGPSVFLFPPKPKDTLMISRTPEVTCVVVDVSHEDPEVKFNWYVDGVEVHNAKTKPREEQYNSTYRVVSVLTVLHQDWLNGKEYKCKVSNKALPASIEKTISKAKGQPREPQVYTLPPCREEMTKNQVSLWCLVKGFYPSDIAVEWESNGQPENNYKTTPPVLDSDGSFFLYSKLTVDKSRWQQGNVFSCSVMHEALHNHYTQKSLSLSPGK
heavy: B1 heavy
light: B1 light
notes: KiH heterodimer
Turning to B3, the entries for the “% Positive” value in test [1] and in test [4] were 31.6% and 98.2%, respectively. The gMFI in test [1] stood at 5260 gMFI; in test [2], 3320 gMFI; in test [4] it was 30000 gMFI; in test [5] it was 9600 gMFI. Besides, the “Jurkat WT/KO (Fold)” value amounted to 1.6 fold in test [3] and 4.1 fold in test [6].

B4: CD3 × CD33-BspAb115 (bispecific antibody)
scFv-Fc: NFMLTQPHSVSESPGKTVTISCTRTSGSIASNYVQWYQQRPGSSPTTVIYEDNQRPSGVPDRFSGSIDSSSNSASLTISGLKTEDEAAYYCQSYDRSNRVFGCGTKLTVLGGGGSGGGGSGGGGSGGGGSQVQLQESGPGLVKPSETLSLTCTVSGGSISSYYWSWIRQPAGKCLEWIGRIYTSGSTKYNPSLKSRVTMSVDTSKNQFSLKLISVTAADTAVYFCARERIRDLYFDYWGQGTLVTVSSGGGGSDKTHTCPPCPAPEFEGGPSVFLFPPKPKDTLMISRTPEVTCVVVDVSHEDPEVKFNWYVDGVEVHNAKTKPREEQYNSTYRVVSVLTVLHQDWLNGKEYKCKVSNKALPASIEKTISKAKGQPREPQVYTLPPCREEMTKNQVSLWCLVKGFYPSDIAVEWESNGQPENNYKTTPPVLDSDGSFFLYSKLTVDKSRWQQGNVFSCSVMHEALHNHYTQKSLSLSPGK
heavy: B1 heavy
light: B1 light
notes: KiH heterodimer
For B4, the “% Positive” value was found to be 63.4% in test [1] and 95.5% in test [4]. The gMFI is 8660 gMFI in test [1], 7380 gMFI in test [2], 34200 gMFI in test [4] and 12600 gMFI in test [5]. For the same molecule, the “Jurkat WT/KO (Fold)” value amounted to 3.6 fold in test [3] and 5.7 fold in test [6].

B5: CD3 × CD33-BspAb117 (bispecific antibody)
scFv-Fc: NFMLTQPHSVSESPGKTVTISCTRSSGSIASNYVQWYQQRPGSSPTSVIYEDNQRPSGVPDRFSGSIDSSSNSASLTISGLKTEDEADYYCQSYDRSNRVFGCGTKLTVLGGGGSGGGGSGGGGSGGGGSEVQLVESGGGLVKPGGSLRLSCAASGLTFSTYSMNWVRQAPGKCLEWVSSISSSGSYVYYADSVKGRFTMSRDNAKNSLYLQMNSLRAEDTAVYYCARERRELLFDYWGQGTLVTVSSGGGGSDKTHTCPPCPAPEFEGGPSVFLFPPKPKDTLMISRTPEVTCVVVDVSHEDPEVKFNWYVDGVEVHNAKTKPREEQYNSTYRVVSVLTVLHQDWLNGKEYKCKVSNKALPASIEKTISKAKGQPREPQVYTLPPCREEMTKNQVSLWCLVKGFYPSDIAVEWESNGQPENNYKTTPPVLDSDGSFFLYSKLTVDKSRWQQGNVFSCSVMHEALHNHYTQKSLSLSPGK
heavy: B1 heavy
light: B1 light
notes: KiH heterodimer
Regarding B5, the figures for the “% Positive” value in test [1] and in test [4] were 99.6% and 99.7%, respectively. In addition, the gMFI in test [1] amounted to 70300 gMFI; in test [2] it was 29700 gMFI; in test [4] it was 195000 gMFI; in test [5], 38600 gMFI. In addition, the entries for the “Jurkat WT/KO (Fold)” value in test [3] and in test [6] were 8.7 fold and 10.6 fold, respectively.

B6: CD3 × CD33-BspAb113 (bispecific antibody)
scFv-Fc: NFMLTQPHSVSESPGKTVTISCTRSSGSIASNYVQWYQQRPGSSPTTVIYEDNQRPSGVPDRFSGSIDSSSNSASLTISGLKTEDEADYYCQSYDSSNRVFGCGTKLTVLGGGGSGGGGSGGGGSGGGGSEVQLVESGGGLVKFGGSLRLSCAASGFTFSRYSMNWVRQAPGKCLEWVSSISSSSSYKYYADSVKGRFTISRDNAKNSLYLQMNSLRAEDTAVYYCAREGGNSHGMDVWGQGTTVTVSSGGGGSDKTHTCPPCPAPEFEGGPSVFLFPPKPKDTLMISRTPEVTCVVVDVSHEDPEVKFNWYVDGVEVHNAKTKPREEQYNSTYRVVSVLTVLHQDWLNGKEYKCKVSNKALPASIEKTISKAKGQPREPQVYTLPPCREEMTKNQVSLWCLVKGFYPSDIAVEWESNGQPENNYKTTPPVLDSDGSFFLYSKLTVDKSRWQQGNVFSCSVMHEALHNHYTQKSLSLSPGK
heavy: B1 heavy
light: B1 light
notes: KiH heterodimer
As for B6, the “% Positive” value in test [1] came out at 96.2%; in test [4], 99.5%. For the same molecule, the gMFI in test [1] stood at 24900 gMFI; in test [2], 10100 gMFI; in test [4] it was 111000 gMFI; in test [5] it was 16000 gMFI. Further, the results for the “Jurkat WT/KO (Fold)” value in test [3] and in test [6] were 3.9 fold and 5.9 fold, respectively.

B7: CD3 × CD33-BspAb119 (bispecific antibody)
scFv-Fc: B6 scFv-Fc with L134V, V135A, F144P, S185G, K188T, A227V, G230R, N232K, S233G, H234A
heavy: B1 heavy
light: B1 light
notes: KiH heterodimer
On to B7, for which the “% Positive” value in test [1] came out at 99.8%; in test [4], 99.7%. Besides, the gMFI in test [1] was 88200 gMFI; in test [2] it was 22400 gMFI; in test [4] it was 166000 gMFI; in test [5], 25700 gMFI. Also, the “Jurkat WT/KO (Fold)” value in test [3] is 7.8 fold; in test [6] it was 9 fold.
